Data set [1] relates to HeLa Kyoto. Briefly: thermal stability score vs G1/S (z-score of summed log2 fold changes over temperatures); higher = more thermally stable than in G1/S.
Data set [2] concerns HeLa Kyoto. Briefly: solubility in G1/S (NP-40 vs SDS abundance) (log2 ratio); higher = more soluble. The note with it: cell cycle stage: G1/S.
In data set [3] the test system is HeLa Kyoto. The data set can be described thus: melting temperature (median over replicates), in situ; higher = more thermally stable.
The test system of data set [4] is HeLa Kyoto. Briefly: solubility change mitosis vs G1/S (difference of NP-40 vs SDS log2 ratios) (log2 ratio difference); higher = more soluble in mitosis.
The mark [5] stands for this setting: cell cycle stage: early G1 (4.5 h after nocodazole release).

The results in this text go back to the supplement of paper PMC5998384.
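Throughout, for melting temperature (median over replicates), in situ: HeLa Kyoto cells synchronized by double thymidine or nocodazole block, proteins quantified by TMT10plex mass spectrometry, three independent biological replicates.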
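Throughout, for solubility change mitosis vs G1/S (difference of NP-40 vs SDS log2 ratios): synchronized HeLa Kyoto cells (double thymidine block for G1/S, nocodazole release for mitosis), protein amounts in NP-40 versus SDS lysates quantified by mass spectrometry, three biological replicates.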
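Throughout, for solubility in G1/S (NP-40 vs SDS abundance): HeLa Kyoto cells arrested at G1/S by double thymidine block, proteins quantified by TMT10plex mass spectrometry in mild NP-40 versus SDS extracts, three biological replicates.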
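Throughout, for thermal stability score vs G1/S (z-score of summed log2 fold changes over temperatures): synchronized HeLa Kyoto cells, proteins quantified by TMT10plex mass spectrometry, three biological replicates, mitosis taken 0.5 h after nocodazole release, G1/S directly after double thymidine block.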

Sequence of ZNF787 (chain, as listed by the source): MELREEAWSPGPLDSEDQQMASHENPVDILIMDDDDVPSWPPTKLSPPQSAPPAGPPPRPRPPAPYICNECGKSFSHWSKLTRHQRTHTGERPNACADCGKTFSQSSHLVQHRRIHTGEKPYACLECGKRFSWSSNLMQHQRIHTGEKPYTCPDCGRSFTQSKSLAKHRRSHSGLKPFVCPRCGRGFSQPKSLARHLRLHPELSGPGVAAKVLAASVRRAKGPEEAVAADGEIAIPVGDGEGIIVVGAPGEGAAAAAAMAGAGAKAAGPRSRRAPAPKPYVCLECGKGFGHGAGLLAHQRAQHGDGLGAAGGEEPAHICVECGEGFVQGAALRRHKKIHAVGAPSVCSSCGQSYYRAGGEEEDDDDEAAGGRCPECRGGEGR

For “MKGTRAIGSVPERSPAGVDLSLTGLPPPVSRRPGSAATTKPIVRSVSVVTGSEQKRKVLEATGPGGSQAINNLRRSNSTTQVSQPRSGSPRPTEPTDFLMLFEGSPSGKKRPASLSTAPSEKGATWNVLDDQPRGFTLPSNARSSSALDSPAGPRRKECTVALAPNFTANNRSNKGAVGNCVTTMVHNRYTPSERAPPLKSSNQTAPSLNNIIKAATCEGSESSGFGKLPKNVSSATHSARNNTGGSTGLPRRKEVTEEEAERFIHQVNQATVTIQRWYRHQVQRRGAGAARLEHLLQAKREEQRQRSGEGTLLDLHQQKEAARRKAREEKARQARRAAIQELQQKRALRAQKASTAERGPPENPRETRVPGMRQPAQELSPTPGGTAHQALKANNTGGGLPAAGPGDRCLPTSDSSPEPQQPPEDRTQDVLAQDAAGDNLEMMAPSRGSAKSRGPLEELLHTLQLLEKEPDVLPRPRTHHRGRYAWASEVTTEDDASSLTADNLEKFGKLSAFPEPPEDGTLLSEAKLQSIMSFLDEMEKSGQDQLDSQQEGWVPEAGPGPLELGSEVSTSVMRLKLEVEEKKQAMLLLQRALAQQRDLTARRVKETEKALSRQLQRQREHYEATIQRHLAFIDQLIEDKKVLSEKCEAVVAELKQEDQRCTERVAQAQAQHELEIKKLKELMSATEKARREKWISEKTKKIKEVTVRGLEPEIQKLIARHKQEVRRLKSLHEAELLQSDERASQRCLRQAEELREQLEREKEALGQQERERARQRFQQHLEQEQWALQQQRQRLYSEVAEERERLGQQAARQRAELEELRQQLEESSSALTRALRAEFEKGREEQERRHQMELNTLKQQLELERQAWEAGRTRKEEAWLLNREQELREEIRKGRDKEIELVIHRLEADMALAKEESEKAAESRIKRLRDKYEAELSELEQSERKLQERCSELKGQLGEAEGENLRLQGLVRQKERALEDAQAVNEQLSSERSNLAQVIRQEFEDRLAASEEETRQAKAELATLQARQQLELEEVHRRVKTALARKEEAVSSLRTQHEAAVKRADHLEELLEQHRRPTPSTK [CEP131]”, the thermal stability score is -0.343 with HeLa Kyoto [1] (setting [5]) and 1.44 with HeLa Kyoto [1] (cell cycle stage: mitosis). Further, the “solubility in G1/S (log2)” value in the data set with HeLa Kyoto [2] was 0.0853. In addition, the melting temperature in the data set with HeLa Kyoto [3] (cell cycle stage: G1/S) came out at 50.5 °C; in the data set with HeLa Kyoto [3] (cell cycle stage: mitosis) it was 49.2 °C. Also, the “solubility change mitosis (log2)” value in the data set on HeLa Kyoto [4] was found to be 0.357.

In the case of “MDLLFGRRKTPEELLRQNQRALNRAMRELDRERQKLETQEKKIIADIKKMAKQGQMDAVRIMAKDLVRTRRYVRKFVLMRANIQAVSLKIQTLKSNNSMAQAMKGVTKAMGTMNRQLKLPQIQKIMMEFERQAEIMDMKEEMMNDAIDDAMGDEEDEEESDAVVSQVLDELGLSLTDELSNLPSTGGSLSVAAGGKKAEAAASALADADADLEERLKNLRRD [CHMP2A]”, the thermal stability score in the data set with HeLa Kyoto [1] (setting [5]) is 0.326; with HeLa Kyoto [1] (cell cycle stage: mitosis), 0.533. Also, the “solubility in G1/S (log2)” value in the data set on HeLa Kyoto [2] is 0.537. The melting temperature with HeLa Kyoto [3] (cell cycle stage: G1/S) was found to be 53 °C; with HeLa Kyoto [3] (cell cycle stage: mitosis) it was 54.4 °C. In the data set on HeLa Kyoto [4], the “solubility change mitosis (log2)” value is 0.0293.

In the case of COL5A1, the values for the thermal stability score with HeLa Kyoto [1] (setting [5]) and with HeLa Kyoto [1] (cell cycle stage: mitosis) were -0.461 and 1.15, respectively. For the same substance, the “solubility in G1/S (log2)” value in the data set on HeLa Kyoto [2] is -0.2. Besides, the melting temperature in the data set on HeLa Kyoto [3] (cell cycle stage: G1/S) came to 55.6 °C; in the data set on HeLa Kyoto [3] (cell cycle stage: mitosis) it was 55.3 °C. Also, the “solubility change mitosis (log2)” value with HeLa Kyoto [4] was 0.0059.

ZNF787: the thermal stability score with HeLa Kyoto [1] (setting [5]) was -0.71; with HeLa Kyoto [1] (cell cycle stage: mitosis), -1.22. In addition, the “solubility in G1/S (log2)” value in the data set on HeLa Kyoto [2] was -0.0171. Moreover, the figures for the melting temperature with HeLa Kyoto [3] (cell cycle stage: G1/S) and in the data set on HeLa Kyoto [3] (cell cycle stage: mitosis) were 51.9 °C and 54.5 °C, respectively. Further, the “solubility change mitosis (log2)” value in the data set with HeLa Kyoto [4] came out at 0.398.

As to “MAVVIRLLGLPFIAGPVDIRHFFTGLTIPDGGVHIIGGEIGEAFIIFATDEDARRAISRSGGFIKDSSVELFLSSKAEMQKTIEMKRTDRVGRGRPGSGTSGVDSLSNFIESVKEEASNSGYGSSINQDAGFHTNGTGHGNLRPRKTRPLKAENPYLFLRGLPYLVNEDDVRVFFSGLCVDGVIFLKHHDGRNNGDAIVKFASCVDASGGLKCHRSFMGSRFIEVMQGSEQQWIEFGGNAVKEGDVLRRSEEHSPPRGINDRHFRKRSHSKSPRRTRSRSPLGFYVHLKNLSLSIDERDLRNFFRGTDLTDEQIRFLYKDENRTRYAFVMFKTLKDYNTALSLHKTVLQYRPVHIDPISRKQMLKFIARYEKKRSGSLERDRPGHVSQKYSQEGNSGQKLCIYIRNFPFDVTKVEVQKFFADFLLAEDDIYLLYDDKGVGLGEALVKFKSEEQAMKAERLNRRRFLGTEVLLRLISEAQIQEFGVNFSVMSSEKMQARSQSRERGDHSHLFDSKDPPIYSVGAFENFRHQLEDLRQLDNFKHPQRDFRQPDRHPPEDFRHSSEDFRFPPEDFRHSPEDFRRPREEDFRRPSEEDFRRPWEEDFRRPPEDDFRHPREEDWRRPLEEDWRRPLEEDFRRSPTEDFRQLPEEDFRQPPEEDLRWLPEEDFRRPPEEDWRRPPEEDFRRPLQGEWRRPPEDDFRRPPEEDFRHSPEEDFRQSPQEHFRRPPQEHFRRPPPEHFRRPPPEHFRRPPPEHFRRPPPEHFRRPPPEHFRRPPPEHFRRPPQEHFRRPPQEHFRRSREEDFRHPPDEDFRGPPDEDFRHPPDEDFRSPQEEDFRCPSDEDFRQLPEEDLREAPEEDPRLPDNFRPPGEDFRSPPDDFRSHRPFVNFGRPEGGKFDFGKHNMGSFPEGRFMPDPKINCGSGRVTPIKIMNLPFKANVNEILDFFHGYRIIPDSVSIQYNEQGLPTGEAIVAMINYNEAMAAIKDLNDRPVGPRKVKLTLL [RBM12B]”, the results for the thermal stability score with HeLa Kyoto [1] (setting [5]) and in the data set on HeLa Kyoto [1] (cell cycle stage: mitosis) were 0.194 and 1.05, respectively. In addition, in the data set on HeLa Kyoto [2], the “solubility in G1/S (log2)” value is -0.972. In addition, the melting temperature in the data set with HeLa Kyoto [3] (cell cycle stage: G1/S) is 47.6 °C; in the data set with HeLa Kyoto [3] (cell cycle stage: mitosis), 49.7 °C. The “solubility change mitosis (log2)” value with HeLa Kyoto [4] is 0.191.

Regarding “MSDEREVAEAATGEDASSPPPKTEAASDPQHPAASEGAAAAAASPPLLRCLVLTGFGGYDKVKLQSRPAAPPAPGPGQLTLRLRACGLNFADLMARQGLYDRLPPLPVTPGMEGAGVVIAVGEGVSDRKAGDRVMVLNRSGMWQEEVTVPSVQTFLIPEAMTFEEAAALLVNYITAYMVLFDFGNLQPGHSVLVHMAAGGVGMAAVQLCRTVENVTVFGTASASKHEALKENGVTHPIDYHTTDYVDEIKKISPKGVDIVMDPLGGSDTAKGYNLLKPMGKVVTYGMANLLTGPKRNLMALARTWWNQFSVTALQLLQANRAVCGFHLGYLDGEVELVSGVVARLLALYNQGHIKPHIDSVWPFEKVADAMKQMQEKKNVGKVLLVPGPEKEN [VAT1]”, the values for the thermal stability score in the data set with HeLa Kyoto [1] (setting [5]) and with HeLa Kyoto [1] (cell cycle stage: mitosis) were -0.577 and -3.49, respectively. Further, in the data set on HeLa Kyoto [2], the “solubility in G1/S (log2)” value was 0.232. Further, the results for the melting temperature in the data set with HeLa Kyoto [3] (cell cycle stage: G1/S) and in the data set with HeLa Kyoto [3] (cell cycle stage: mitosis) were 55.9 °C and 55.3 °C, respectively. Also, the “solubility change mitosis (log2)” value in the data set with HeLa Kyoto [4] was -0.125.

As to “MEGLTLSDAEQKYYSDLFSYCDIESTKKVVVNGRVLELFRAAQLPNDVVLQIMELCGATRLGYFGRSQFYIALKLVAVAQSGFPLRVESINTVKDLPLPRFVASKNEQESRHAASYSSDSENQGSYSGVIPPPPGRGQVKKGSVSHDTVQPRTSADAQEPASPVVSPQQSPPTSPHTWRKHSRHPSGGNSERPLAGPGPFWSPFGEAQSGSSAGDAVWSGHSPPPPQENWVSFADTPPTSTLLTMHPASVQDQTTVRTVASATTAIEIRRQSSSYDDPWKITDEQRQYYVNQFKTIQPDLNGFIPGSAAKEFFTKSKLPILELSHIWELSDFDKDGALTLDEFCAAFHLVVARKNGYDLPEKLPESLMPKLIDLEDSADVGDQPGEVGYSGSPAEAPPSKSPSMPSLNQTWPELNQSSEQWETFSERSSSSQTLTQFDSNIAPADPDTAIVHPVPIRMTPSKIHMQEMELKRTGSDHTNPTSPLLVKPSDLLEENKINSSVKFASGNTVADGYSSSDSFTSDPEQIGSNVTRQRSHSGTSPDNTAPPPPPPRPQPSHSRSSSLDMNRTFTVTTGQQQAGVVAHPPAVPPRPQPSQAPGPAVHRPVDADGLITHTSTSPQQIPEQPNFADFSQFEVFAASNVNDEQDDEAEKHPEVLPAEKASDPASSLRVAKTDSKTEEKTAASAPANVSKGTTPLAPPPKPVRRRLKSEDELRPEVDEHTQKTGVLAAVLASQPSIPRSVGKDKKAIQASIRRNKETNTVLARLNSELQQQLKDVLEERISLEVQLEQLRPFSHL [REPS1]”, the thermal stability score in the data set with HeLa Kyoto [1] (setting [5]) came out at 0.407; in the data set with HeLa Kyoto [1] (cell cycle stage: mitosis), 0.261. The “solubility in G1/S (log2)” value in the data set with HeLa Kyoto [2] turned out to be 0.0849. Besides, the values for the melting temperature in the data set with HeLa Kyoto [3] (cell cycle stage: G1/S) and with HeLa Kyoto [3] (cell cycle stage: mitosis) were 48.8 °C and 49.8 °C, respectively. In addition, the “solubility change mitosis (log2)” value in the data set on HeLa Kyoto [4] was -0.0971.

For the substance “MAVNVYSTSVTSDNLSRHDMLAWINESLQLNLTKIEQLCSGAAYCQFMDMLFPGSIALKKVKFQAKLEHEYIQNFKILQAGFKRMGVDKIIPVDKLVKGKFQDNFEFVQWFKKFFDANYDGKDYDPVAARQGQETAVAPSLVAPALNKPKKPLTSSSAAPQRPISTQRTAAAPKAGPGVVRKNPGVGNGDDEAAELMQQVNVLKLTVEDLEKERDFYFGKLRNIELICQENEGENDPVLQRIVDILYATDEGFVIPDEGGPQEEQEEY [MAPRE1]”, the thermal stability score was -0.163 in the data set with HeLa Kyoto [1] (setting [5]) and -0.675 in the data set on HeLa Kyoto [1] (cell cycle stage: mitosis). For the same substance, the “solubility in G1/S (log2)” value in the data set with HeLa Kyoto [2] turned out to be 0.394. Also, the melting temperature came to 50.8 °C in the data set with HeLa Kyoto [3] (cell cycle stage: G1/S) and 51.2 °C in the data set with HeLa Kyoto [3] (cell cycle stage: mitosis). For the same substance, the “solubility change mitosis (log2)” value in the data set with HeLa Kyoto [4] was determined as 0.204.
